Data set [1] deals with the molecule itself. As to the kind of experiment: negative-stain EM, single particle 3D reconstruction.
Data set [2] has as its target T1, E1FL (full-length E1) (bovine papillomavirus (BPV-1), UniProt P03116 1-605). As to the kind of experiment: gel filtration (SEC) and negative stain EM (20 A); streptavidin (MTS) bound to biotin. The conditions noted are these: protein: recombinant; tags: GST fusion, tag cleaved with thrombin and removed; chain copies: 6; label: 5'-biotin on top strand (dsDNA end); fork: 10 bp duplex, 3' T20 and 5' C10 arms. In general terms: SEC sorts molecules by how far they enter the pores of the column.

Data set [3] addresses T1, E1FL (full-length E1). The data set can be described thus: gel filtration (SEC) and negative stain EM; no nucleotide cofactor; 50 uM E1, E1:DNA 6:1. To be noted: protein: recombinant; tags: GST fusion, tag cleaved with thrombin and removed; chain copies: 6; single strand.
The target of data set [4] is T1, E1FL (full-length E1). The data set can be described thus: gel filtration (SEC) and negative stain EM (20 A); streptavidin (MTS) and anti-digoxigenin Fab bound to labels. The conditions noted are these: protein: recombinant; tags: GST fusion, tag cleaved with thrombin and removed; chain copies: 6; label: 5'-biotin on top strand; 5'-digoxigenin on bottom strand; fork: 10 bp duplex, 3' T20 and 5' C10 arms.

The target of data set [5] is T1, E1FL (full-length E1). As to the kind of experiment: hydroxyl radical footprinting. To be noted: protein: recombinant; tags: GST fusion, tag cleaved with thrombin and removed; chain copies: 6; label: 5'-32P on top strand; fork: 30 bp duplex, 3' T20 and 5' C8 arms.
Data set [6] concerns the target T1, E1FL (full-length E1). The data set can be described thus: hydroxyl radical footprinting; 10-fold excess unlabelled T18 competitor; similar protection to top strand. The conditions noted are these: protein: recombinant; tags: GST fusion, tag cleaved with thrombin and removed; chain copies: 6; label: 3'-32P on bottom strand; fork: 3' T20 and 5' C8 arms; 29 bp as printed before labelling.

For data set [7], the target named is T1, E1FL (full-length E1). As to the kind of experiment: gel filtration (SEC); no nucleotide cofactor; 50 uM E1, E1:DNA 6:1. To be noted: protein: recombinant; tags: GST fusion, tag cleaved with thrombin and removed; chain copies: 6; fork: 10 bp duplex, 3' T20 and 5' C10 arms.

B1: E1 helicase domain (residues 299-605) (domain or fragment)
chain: QTTLNESLQTEKFDFGTMVQWAYDHKYAEESKIAYEYALAAGSDSNARAFLATNSQAKHVKDCATMVRHYLRAETQALSMPAYIKARCKLATGEGSWKSILTFFNYQNIELITFINALKLWLKGIPKKNCLAFIGPPNTGKSMLCNSLIHFLGGSVLSFANHKSHFWLASLADTRAALVDDATHACWRYFDTYLRNALDGYPVSIDRKHKAAVQIKAPPLLVTSNIDVQAEDRYLYLHSRVQTFRFEQPCTDESGEQPFNITDADWKSFFVRLWGRLDLIDEEEDSEEDGDSMRTFTCSARNTNAVD
For B1, in data set [1], the binding result is “binds”.

B2: full length BPV-1 E1 helicase (enzyme)
chain: MANDKGSNWDSGLGCSYLLTEAECESDKENEEPGAGVELSVESDRYDSQDEDFVDNASVFQGNHLEVFQALEKKAGEEQILNLKRKVLGSSQNSSGSEASETPVKRRKSGAKRRLFAENEANRVLTPLQVQGEGEGRQELNEEQAISHLHLQLVKSKNATVFKLGLFKSLFLCSFHDITRLFKNDKTTNQQWVLAVFGLAEVFFEASFELLKKQCSFLQMQKRSHEGGTCAVYLICFNTAKSRETVRNLMANTLNVREECLMLQPAKIRGLSAALFWFKSSLSPATLKHGALPEWIRAQTTLNESLQTEKFDFGTMVQWAYDHKYAEESKIAYEYALAAGSDSNARAFLATNSQAKHVKDCATMVRHYLRAETQALSMPAYIKARCKLATGEGSWKSILTFFNYQNIELITFINALKLWLKGIPKKNCLAFIGPPNTGKSMLCNSLIHFLGGSVLSFANHKSHFWLASLADTRAALVDDATHACWRYFDTYLRNALDGYPVSIDRKHKAAVQIKAPPLLVTSNIDVQAEDRYLYLHSRVQTFRFEQPCTDESGEQPFNITDADWKSFFVRLWGRLDLIDEEEDSEEDGDSMRTFTCSARNTNAVD
Regarding B2, in data set [1], the “stoichiometry N” value worked out at 6.

B3: RFJ 10 bp fork, 5' dsDNA biotin (dsDNA)
DNA 1: CCTCAGCGCGTTTTTTTTTTTTTTTTTTTT
DNA 2: CCCCCCCCCCCGCGCTGAGG
As for B3, the binding result with E1FL (full-length E1) [2] is listed as “binds”.
Turning to TTTTTTTTTTTTTTTTTTTTTTTTTTTTTT (ssDNA) [ssDNA T30], the binding result in the data set with E1FL (full-length E1) [3] is recorded as “binds”.

B4: RFJ 10 bp fork, 5' dsDNA biotin and 5' ssDNA digoxigenin (dsDNA)
DNA 1: CCTCAGCGCGTTTTTTTTTTTTTTTTTTTT
DNA 2: CCCCCCCCCCCGCGCTGAGG
B4: the binding result with E1FL (full-length E1) [4] is reported as “binds”.

B5: 30 bp fork, 3' T20 and 5' C8, top strand labelled (dsDNA)
DNA 1: GGCTTGTATTTCACACCGCACCTCAGCGCGTTTTTTTTTTTTTTTTTTTT
DNA 2: CCCCCCCCCGCGCTGAGGTGCGGTGTGAAATACAAGCC
In the case of B5, the binding result with E1FL (full-length E1) [5] is reported as “binds”.

B6: 30 bp fork, 3' T20 and 5' C8, bottom strand labelled (dsDNA)
DNA 1: GGCTTGTATTTCACACCGCACCTCAGCGCGTTTTTTTTTTTTTTTTTTTT
DNA 2: CCCCCCCCCGCGCTGAGGTGCGGTGTGAAATACAAG
For the molecule B6, in the data set with E1FL (full-length E1) [6], the binding result is given as “binds”.

B7: RFJ 10 bp fork, 3' T20 and 5' C10 (dsDNA)
DNA 1: CCTCAGCGCGTTTTTTTTTTTTTTTTTTTT
DNA 2: CCCCCCCCCCCGCGCTGAGG
Consider B7, for which the binding result in the data set with E1FL (full-length E1) [7] was “binds”.

For orientation: stoichiometry N means a count of units in the complex or per binding partner.

Values taken from PMC4787811 (Nucleic Acids Research, 2015).
